Measurements: the supplement of paper PMC12764529
± gives the half width of the 95% confidence interval.

Assays:
[1] = folding stability dG unfold from chymotrypsin proteolysis; higher = more stable
Procedure, shortened: (§1)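 Sequencing followed digestion of designed mini-proteins with trypsin and chymotrypsin, each at 11 concentrations in threefold dilutions together with a no-protease condition. The mini-proteins were under 80 residues, had no cysteine, sat in a PA-tagged cDNA display construct, and were kept only if AlphaFold2 dimer inter-PAE was above 15. From the counts, Bayesian fitting gave K50, and unfolding free energy was derived against a sequence-predicted unfolded-state K50 and a shared folded-state K50, per protease or combined.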

[2] = folding stability dG unfold from trypsin proteolysis; higher = more stable
Procedure, shortened: as §1

[3] = folding stability dG unfold (combined trypsin and chymotrypsin); higher = more stable
Procedure, shortened: as §1

Sequence | folding stability dG unfold [1] | folding stability dG unfold [2] | folding stability dG unfold [3]
SAGGMMKIRIEVENPKGEKKEIELSEEELERIKEALKEGKVLTEEELKKLIELAKEKGYKVKIVEIESAGGS [r8_159_TrROS_Hall] | 9.9 ± 0.31 kJ/mol | 1.87 ± 0.322 kJ/mol | 8.76 ± 1 kJ/mol
SAGGMMTLKITIVDEDGNEITIEVEMSIEELEELIKELFPGKKVKVVSVEEEPVEPGLVKVTIKIEKESAGG [r13_832_TrROS_Hall] | 21 ± 0.669 kJ/mol | 15 ± 0.502 kJ/mol | 20.8 ± 1.38 kJ/mol
SAGGMNLMIKIENNGEPITFMINSPEDAEEIASNLPELGYPIEVKKLEPQRNEDGNPMVMVEIRIKPSAGGS [r8_336_TrROS] | 6.82 ± 0.628 kJ/mol | 3.19 ± 0.586 kJ/mol | 5.07 ± 0.962 kJ/mol
SAGGMPEEELTLIVRIKVYNPETGEEKEITLTITVKSEEELEKAKKLVEELEEKLKELGIKKVEIEILSAGG [r13_360_TrROS_Hall] | 14.1 ± 0.406 kJ/mol | 12.2 ± 1.05 kJ/mol | 13.4 ± 1.09 kJ/mol
SAGGMPGEVVDISDVPPGATLYDPEGKSYGPVVDVRVTVGPDSVEITITFPDGTTRTITAPRDKIYILPSAG [r5_850_JUSTAS] | 5.17 ± 0.272 kJ/mol | 7.67 ± 0.347 kJ/mol | 6.65 ± 0.586 kJ/mol
SAGGMPGIRPVLRIRARVRFRGPEREEEIEIELHPEALEAGLTAEELARLRAEELGYEVEIEEIEIESAGGS [r16_554_TrMRF] | 8.43 ± 0.285 kJ/mol | 5.26 ± 0.406 kJ/mol | 7.72 ± 0.418 kJ/mol
SAGGMPKDAPTTDLTITEIVTEPDPNSDTYIARVTTRLPDGTEIVYTLPIPADTTEEEVVERAKELLSSAGG [r13_578_JUSTAS] | 9.653 ± 0.0753 kJ/mol | 7.43 ± 0.146 kJ/mol | 8.86 ± 0.322 kJ/mol
SAGGMPKVPVTYTVTFTLKPDGSTLTVTETFPVPEPGKPVTKEEIKQRLLDKLPPSYTITSITITRASAGGS [r16_407_JUSTAS] | 9.26 ± 0.109 kJ/mol | 7.8 ± 0.126 kJ/mol | 8.91 ± 0.213 kJ/mol
SAGGMPLEHIAEITEVRTFPDGRKEIRLLVEDPEVAEEGHPELREEMAELLRRLFEEEGLEVRVVPGESAGG [r13_243_TrMRF] | 0.783 ± 0.753 kJ/mol | 0.299 ± 0.795 kJ/mol | 0.838 ± 0.795 kJ/mol
SAGGMPLGITITETVTPTPDGSVVVTLTVSLPPDEPLTITFPISGETVSFPPDETITLKVTVPPGLSSAGGS [r16_56_JUSTAS] | 3.99 ± 0.142 kJ/mol | 7.12 ± 0.377 kJ/mol | 5.85 ± 0.389 kJ/mol
SAGGMPLPDEKVNITITINYTLPGGKPKTITIPATNWTVEEANEKKKKVEEELKKVPPDPVEKDGKLLSAGG [r13_330_JUSTAS] | -1.18 ± 1 kJ/mol | -3.12 ± 0.795 kJ/mol | -1.48 ± 0.879 kJ/mol
SAGGMPLPFRITQWDPNTGKPVATFPAVYDPETGLVVITPPDGSKEVFDAPLEEIVEALPSNWTVEPSAGGS [r16_543_TrMRF] | -0.315 ± 2.01 kJ/mol | 0.505 ± 0.402 kJ/mol | 0.347 ± 0.669 kJ/mol
SAGGMPLRFRIEVYKTETYYDPSTGKEVTKVEPLPELEIEAPPNTPLEAILAALDLPEDYYISRIGVESAGG [r13_716_TrMRF] | 10.7 ± 0.109 kJ/mol | 8.62 ± 0.272 kJ/mol | 10.2 ± 0.205 kJ/mol
SAGGMPPENPAVVKVLAQKQKFEDLVKELKEKGIEAKLEKIEVVPETGKVTVTIKLPDGKEIVITIESAGGS [r8_277_JUSTAS] | 4.84 ± 0.268 kJ/mol | 6.76 ± 0.46 kJ/mol | 5.57 ± 0.879 kJ/mol
SAGGMPPVVTEHTVELNPPASATLEDVRAAAEEVAAAIRAAAPEAGVAEVTFTVDPSRGTVTITVTRPSAGG [r13_1011_JUSTAS] | -3.87 ± 0.628 kJ/mol | 4.12 ± 0.0753 kJ/mol | 1.85 ± 0.18 kJ/mol
SAGGMPTYTITITSPETGELKELPPNISQTFDPNNVTYYTFTSEEEAKEAIKLIAPQNGWKVTITSSSAGGS [r8_131_JUSTAS] | -0.585 ± 2.18 kJ/mol | 5.73 ± 0.92 kJ/mol | 3.73 ± 1.46 kJ/mol
SAGGMPVGVARVRTEAGDKVLEFTVEVPADVGAVEIRVKLKPDPLTGEPVVEEILEVRTYRAPPDVELSAGG [r13_568_TrMRF] | 3.5 ± 0.314 kJ/mol | 3.51 ± 0.197 kJ/mol | 3.71 ± 0.23 kJ/mol
SAGGMPVLEREFTIPLPDGTPLRVTVRYFPGTGRALVTLRPVGTGEPLATVPLSELPPELRAALAEESAGGS [r8_32_TrMRF] | 12.98 ± 0.109 kJ/mol | 10.1 ± 0.264 kJ/mol | 12.1 ± 0.218 kJ/mol
SAGGMPVPVKIEIIDDPGTLIITTPNGKPYTIPIPPNSIEEITIDPEKKVIKIKLKDGEIIIDVPDGSAGGS [r16_104_TrMRF] | 7.83 ± 0.159 kJ/mol | 6.78 ± 0.301 kJ/mol | 7.87 ± 0.46 kJ/mol
SAGGMPVVIEIHVPKDKEEELARLIRRLLSELGAEVRVERFEDGIKVTAVLPDGTVIELHIVDDEKASAGGS [r16_406_TrMRF] | 16.8 ± 0.711 kJ/mol | 17.9 ± 0.879 kJ/mol | 17.7 ± 0.795 kJ/mol
SAGGMQKAIDIAKELGWKILDVDPEKKVVKVKPPDSDVEVTITVDDESTVTITTKNPGSDVVETIPESAGGS [r16_197_JUSTAS] | 6.14 ± 0.234 kJ/mol | 5.79 ± 0.381 kJ/mol | 5.84 ± 0.669 kJ/mol

Sequence | folding stability dG unfold [1] | folding stability dG unfold [2] | folding stability dG unfold [3]
SAGGMRIEVEIEEVRELPDGRLVFRVRARIELKVRVLERDENGRWRELPEEEVTVELEVEVEVFLPPSAGGS [r16_693_TrROS_Hall] | 21.3 ± 0.879 kJ/mol | 16.6 ± 0.795 kJ/mol | 19.9 ± 1.26 kJ/mol
SAGGMRVERSTSPSGEPVLLITLYLPDGTRVAEAPLRLDPARGGLTEEELEAVLKEIDLPEDVEVELRSAGG [r13_479_JUSTAS] | 1.96 ± 0.669 kJ/mol | 2.16 ± 0.46 kJ/mol | 2.02 ± 0.586 kJ/mol
SAGGMSEALLADPTVEKVELFPSPGVTVYYRPETGTWLIQPPDGSVEEIKMTPEELEKLIADGLKPASAGGS [r16_745_JUSTAS] | 2.46 ± 0.962 kJ/mol | 3.51 ± 0.46 kJ/mol | 3.86 ± 0.418 kJ/mol
SAGGMSIEELLKEAGYEVTVEEEEVDGKLRLKITIKANGKTLVIEVPESDAEEVLREIAKALGLEPESAGGS [r8_226_TrROS_Hall] | 12.6 ± 0.197 kJ/mol | 17.6 ± 1.76 kJ/mol | 14.8 ± 0.753 kJ/mol
SAGGMSITLTPDDGSTLTIPLSDPTLSLEEVVQMVVDKQEGAVNIQVTITFPDSEVTKTYTIPSPGGSAGGS [r16_216_JUSTAS] | 1.15 ± 0.544 kJ/mol | 3.54 ± 0.172 kJ/mol | 2.53 ± 0.544 kJ/mol
SAGGMSLSDPRDIRKAAKLKEIEILVKELNDKGIEVKLDEISFIEGTEEITAIVTFPDGTKYEITINSAGGS [r8_277_TrMRF] | 4.27 ± 0.0753 kJ/mol | 7.73 ± 0.176 kJ/mol | 5.94 ± 0.314 kJ/mol
SAGGMSPEELASLSPEERRAVVEEALRERLARERPGAPPDFALEDVPVTVRDPATGTTTTVTVRLEAASAGG [r13_555_JUSTAS] | 0.456 ± 0.586 kJ/mol | 1.61 ± 0.46 kJ/mol | 0.742 ± 0.669 kJ/mol
SAGGMSPELAADPNVKRVLRFPEPGVFLAYYPEKGLLLLTPPDGKVLLIEAKPEEAEKLVESGLKPESAGGS [r16_745_TrMRF] | -1.87 ± 0.795 kJ/mol | 0.117 ± 0.502 kJ/mol | -0.253 ± 0.544 kJ/mol
SAGGMSPVKVAEKTYVIPLPSSMTKEEAKEEVKKELVPKGIDKIDIPISEDPNKGTLIIKVTVYKYPNESAG [r5_924_JUSTAS] | 3.17 ± 1.13 kJ/mol | 1.24 ± 0.837 kJ/mol | 2.05 ± 1.46 kJ/mol
SAGGMSSSSYTYTTPLSSLKAAHPDLSEEELLALAKEAAKAALEAEGVPVSSVTATLAPDGTLTIVDSAGGS [r8_368_JUSTAS] | 2.65 ± 0.502 kJ/mol | 3.61 ± 0.272 kJ/mol | 3.49 ± 0.586 kJ/mol
SAGGMSTTKTVTSGGSTVTITTEPLPDGTTLSTVTVKSGGSPVTTITIPTSQLGEVAAAGGFAPADLLSAGG [r13_108_JUSTAS] | 0.718 ± 0.23 kJ/mol | 0.162 ± 0.226 kJ/mol | 0.627 ± 0.272 kJ/mol
SAGGMSTTYTLKYPGTTVTVTFNPGSVTVDDTDPANPVTKPLPVPPGKPLTLAEVKAALAAAGYAVAESAGG [r13_687_JUSTAS] | 0.0762 ± 1.38 kJ/mol | -0.854 ± 0.628 kJ/mol | 0.0674 ± 0.879 kJ/mol
SAGGMSVKIEEKTHPETNEITINVEYDDIEKAKKEIAEKIKKENGNIPVTLVDKNGKPITIPLKELISAGGS [r8_236_JUSTAS] | 1.54 ± 0.126 kJ/mol | 0.0942 ± 0.364 kJ/mol | 1.32 ± 0.414 kJ/mol
SAGGMSVRFRFTDEDDRIHVDEIIPGEGIMRVVVEGEDRPLVFTIDAPPDAAIQLIRDLFDGPFEVEASAGG [r13_141_TrMRF] | 3.55 ± 0.46 kJ/mol | -0.781 ± 1.09 kJ/mol | 2.49 ± 0.397 kJ/mol
SAGGMSVTFEKEDKTYVITFEPSPEGGYLVTLEVLDPKTGEAKPVATAEFTEGSLEDAVVALLAAEESAGGS [r16_378_TrMRF] | 15.4 ± 0.335 kJ/mol | 17.1 ± 1.26 kJ/mol | 15.5 ± 0.502 kJ/mol
SAGGMSVVIPVRPEDREEVRELLEALPSEDVKVVIYNPVTGEKREVTPEEARALLEATDEPLVIEVRSAGGS [r16_263_TrMRF] | 7.91 ± 0.0962 kJ/mol | 7.01 ± 0.192 kJ/mol | 7.69 ± 0.172 kJ/mol
SAGGMTEEEAKELAKELAEKYAEEKGIEEIELKIESVEKEGDKFTVKVKLTFPNEEKTITITIPKDLISAGG [r13_611_JUSTAS] | 13.4 ± 0.795 kJ/mol | 14 ± 0.879 kJ/mol | 13.6 ± 0.46 kJ/mol
SAGGMTEVSEVERSVIPDEGIPVTLERVETTVTVPPTTYKDEKGEVLPPGAVVHTESTVTIEERPELSAGGS [r8_262_JUSTAS] | 0.398 ± 0.418 kJ/mol | 0.919 ± 0.151 kJ/mol | 1.07 ± 0.586 kJ/mol
SAGGMTFETETITLEFPPEDEEEIRKRAEEIAEKLKKEYEKKGYKVEVEFSYDPETGVLTITIKFEKKSAGG [r13_755_JUSTAS] | 17.5 ± 0.28 kJ/mol | 14.9 ± 0.795 kJ/mol | 16.7 ± 0.46 kJ/mol
SAGGMTFTITVTIPAKEKFYDPSKGIWRERELNRVITIPFSSSDIEKAKEEVRSKLPPDKYKITSVDSAGGS [r16_459_JUSTAS] | 5.05 ± 0.711 kJ/mol | 5.39 ± 0.167 kJ/mol | 5 ± 0.502 kJ/mol
SAGGMTIRVEVFRDGELVETLEFEGSVEELLAKLPPEVTYVRIEVEKDGKTETVEFKTAEELKAALKSSAGG [r13_299_TrROS_Hall] | 13.9 ± 0.28 kJ/mol | 8.9 ± 0.318 kJ/mol | 12.2 ± 0.711 kJ/mol
